Article PMC6286779, “HLA-A2-Restricted Epitopes Identified from MTA1 Could Elicit Antigen-Specific Cytotoxic T Lymphocyte Response” (Journal of Immunology Research, 2018)

How the values were obtained:
[1] = tested on: HLA-A2.1/K^b transgenic mice; experiment: IFN-γ intracellular cytokine staining, CD8+ T cells; format: in vivo; settings: mice immunized with MTA1(1–283); splenocytes restimulated with peptide pool; T2 cells pulsed with each peptide; vs PBS, P < 0.001
Experimental: (§1) To test the effects of protein, each HLA-A2.1/K^b transgenic mouse was injected subcutaneously at the base of the tail with 100 μg MTA1(1–283) or the same volume of PBS emulsified in IFA twice on days 0 and 7. On day 14, spleen lymphocytes were harvested and stimulated by peptide pool (10 μg/ml) in vitro for another 6 days. LDH, IFN-γ ELISPOT, and IFN-γ intracellular cytokine staining assays were performed on day 6 after the in vitro stimulation. E/T ratios used in the LDH assay were 12.5 : 1, 25 : 1, and 50 : 1.
(§2) To test the protein MTA1(1–283) stimulation of CTL response in vivo, IFN-γ release of induced CTLs was determined by the intracellular cytokine staining assay according to our former study. In brief, on day 14, spleen lymphocytes were harvested and stimulated by peptide pool (10 μg/ml) in vitro for another 6 days. Then, restimulated splenocytes were incubated with peptide-loaded T2 cells or T2 cells only for 3 h. Subsequently, protein transport inhibitor cocktail was added to splenocytes for another 4 h. Then, those cells were stained with Anti-mouse CD3 PerCP-eFluor® 710 (clone: 17A2, eBioscience) and Anti-mouse CD8α PE (clone: 53–6.7, eBioscience) at 4°C for 30 min. […] Those cells were washed twice by permeabilization buffer and analyzed by flow cytometry.

[2] = tested on: SW620 (HLA-A2+, MTA1+); experiment: LDH cytotoxicity assay, CTLs induced in vitro; format: cell-based, human; settings: PBMCs induced by 50 μg/ml MTA1(1–283); E/T 50 : 1; LDH assay; n = 4
Experimental: (§3) CTL induction in vitro was conducted according to the procedures previously described. Briefly, PBMCs from eight HLA-A^∗02^+ healthy donors were isolated using Ficoll-Paque density gradient centrifugation and resuspended in RPMI 1640 medium supplemented with 10% FBS. Then, PBMCs were stimulated three times (once a week) with the indicated peptides (10 μg/ml) or protein MTA1(1–283) (at final concentrations of 0, 1, 10, 30, and 50 μg/ml) for 21 days. Human recombinant cytokine interleukin-2 (IL-2) (50 U/ml) was added on day 3 and 1 day after each stimulation. The cytotoxic assay (lactate dehydrogenase (LDH) assay) and IFN-γ secretion enzyme-linked immunospot (ELISPOT) assay were performed on day 21.
(§4) Cytotoxic activity of induced T cells was tested based on the quantitation of LDH release using the nonradioactive cytotoxicity assay kit (Promega, USA) at the gradient E/T ratio [29, 31]. Target cells which expressed different levels of MTA1 or peptide-pulsed T2 cells were used as target cells. The anti-human HLA-A2 antibody (BB7.2) was added 30 min before adding effector cells to determine the HLA restriction. Target cells (5 × 10^3/well) were cocultured with the effector cells at 37°C for 4 h. The percentage of specific lysis of the target cells was determined using the equation: percentage of specific lysis = [(experimental release − effector spontaneous release − target spontaneous release)/(target maximum release − target spontaneous release)] × 100.

[3] = tested on: HLA-A2.1/K^b transgenic mice; experiment: IFN-γ intracellular cytokine staining, CD4+ T cells; format: in vivo; settings: mice immunized with MTA1(1–283); CD3+CD8− subset
Experimental: as §1, §2

[4] = tested on: PBMCs from HLA-A*02+ healthy donors; experiment: IFN-γ ELISPOT of CTLs induced in vitro; format: cell-based, human; settings: PBMCs stimulated with MTA1(1–283) once a week for 21 days; stimulators T2 cells with peptide pool 50 μg/ml; n = 4
Experimental: as §3
The ELISPOT assay was performed using a commercial kit (Dakewe, China) according to the procedures previously described. Briefly, T2 cells incubated with/without candidate peptide (50 μg/ml) were used as the stimulating cells, effector cells (1 × 10^5) and stimulator cells (peptide-pulsed T2 cells or T2 cells only, 1 × 10^5) were seeded into the 96-well plate precoated with an anti-human (or anti-mouse) IFN-γ antibody. After incubation at 37°C for 18 h, cells were removed, and plates were processed for analysis as instructed. The spot number was determined automatically using a computer-assisted spot analyzer (Dakewe, China).

[5] = tested on: HLA-A2.1/K^b transgenic mice; experiment: Serum IFN-γ ELISA after immunization; format: in vivo; settings: mice immunized with 100 μg/ml MTA1(1–283) in IFA days 0 and 7; serum day 14; vs PBS, P < 0.001; n = 5
[6] = tested on: SW620 cells (HLA-A2+, MTA1+); experiment: LDH cytotoxicity assay, CTLs induced in HLA-A2.1/Kb transgenic mice; format: in vivo, human; settings: mice immunized with MTA1(1–283) days 0 and 7; E/T 50 : 1 and 25 : 1; significant vs PBS
Experimental: In vivo induction of peptide-specific CTLs was performed as previously described. Briefly, peptide (100 μg) and the IA^b-restricted HBV-core128 T helper epitope (140 μg) emulsified in incomplete Freund's adjuvant (IFA) were used to subcutaneously immunize at the base of the tail of HLA-A2.1/K^b transgenic mice three times on days 0, 5, and 10. On day 11, all mice were sacrificed through cervical dislocation. Spleen lymphocytes were isolated and restimulated once with 10 μg/ml peptide and 10 U/ml mIL-2 in vitro for an additional 6 days. LDH and IFN-γ ELISPOT assays were performed on day 6 after in vitro stimulation. […]
as §1, §4

B1: MTA1(1–283): recombinant fragment of MTA1, first 283 amino acids, expressed in E. coli from pET28a, containing the predominant epitopes (protein, UniProt Q13330 1-283, looked up, fragment)
chain: MAANMYRVGDYVYFENSSSNPYLIRRIEELNKTANGNVEAKVVCFYRRRDISSTLIALADKHATLSVCYKAGPGADNGEEGEIEEEMENPEMVDLPEKLKHQLRHRELFLSRQLESLPATHIRGKCSVTLLNETESLKSYLEREDFFFYSLVYDPQQKTLLADKGEIRVGNRYQADITDLLKEGEEDGRDQSRLETQVWEAHNPLTDKQIDQFLVVARSVGTFARALDCSSSVRQPSLHMSAAAASRDITLFHAMDTLHKNIYDISKAISALVPQGGPVLCRD
[1]
  percentage of IFN-γ+ CD8+ T cells: a higher percentage of IFN-γ ^+ CD8^+ T cells compared with the PBS group
[2]
  rate of lysis of SW620 cells by protein-induced CTLs: 50.01%
[3]
  percentage of IFN-γ+ CD4+ T cells: a certain percentage of IFN-γ ^+ CD4^+ T cells
[4]
  IFN-γ secretion of protein-induced CTLs, ELISPOT: can secrete IFN-γ
[5]
  IFN-γ secretion in vivo (serum IFN-γ, ELISA): secreted more IFN-γ compared with the PBS control group
[6]
  lysis of SW620 tumor cells by T cells induced in vivo by protein: could kill SW620 tumor cells
